# Measured values as given in the nanobody polyreactivity screen of Harvey et al. (2022).
# Assay: yeast display, Sf9 membrane polyspecificity reagent, FACS + sequencing; frameworks hold sequencing errors
# In short: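 After 36–48 hours of galactose induction, yeast (Saccharomyces cerevisiae BJ5465) displaying a synthetic nanobody library were stained at 4 °C for 1 hour with 10% biotinylated, detergent-solubilized Sf9 membrane reagent. Streptavidin microbeads enriched the stained cells before FACS sorting into low and high (top ~1%) gates on anti-HA and streptavidin fluorescence. Each clone's polyreactivity label reflects its gate of origin.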
row,Sequence,polyreactivity (PSR sort gate)
1,QVQLVESGGGLVQAGGSLRLSCAASGRTFGNNAMGWYRQAPGKERELVAAITARGSRTYYADSVKGRFTISRDNAKNTVYLQMNSLKPEDTAVYYCNAGVRRYYRSLHSIGIYYYWGQGTQVTVSS,high polyreactivity
2,QVQLVESGGGLVQAGGSLRLSCAASGRTFGNYAMGWYRQAPGTERELVASITYTVGNTYYADSVKGRFTISRDNAKNTVYIQMNSLKPEDTAVYYCAADGFYLQFYHYDYWGQGTQVTVSS,low polyreactivity
3,QVQLVESGGGLVQAGGSLRLSCAASGRTFGPYAMGWYRQAPGKEREFVAAISYSGGSTYYADSVKGRFTISRDIAKNTVYLQMNSLKPEDTAVYYCAARLPSDHRPVVRGGYEMGYWGQGTQVTVSS,low polyreactivity
4,QVQLVESGGGLVQAGGSLRLSCAASGRTFGPYAMGWYRQAPGKERELVAAISSSGSTTYYADSVKGRFTISRDNAKNTVYLQMNSLKPEDTAVYYCAKPSSRDSPYDYWGQGTQVTVSS,low polyreactivity
5,QVQLVESGGGLVQAGGSLRLSCAASGRTFGPYAMGWYRQAPGKERELVAVISGRGTSTYYADSVKGRFTISRDNAKNTVYLQMNSMKPEDTAVYYCNADYGSWYWGFDYWGQGTQVTVSS,low polyreactivity
6,QVQLVESGGGLVQAGGSLRLSCAASGRTFGPYTMGWYRQAPGKEREFVAAINSSGSRTYYADSVKGRFTISRDNAKNTVYLKINSLKPEDTGVYYCAAEAKWYYSWSYPYEGDYWGQGTQVTVSS,low polyreactivity
7,QVQLVESGGGLVQAGGSLRLSCAASGRTFGQNALGWYRQAPGKERELVASIRSGGITDYADSVKGRFTISRDNAKNTVYLQMNSLKPEDTAVYYCNAEGVWWSTRYDSWGQGTQVTVSS,low polyreactivity
8,QVQLVESGGGLVQAGGSLRLSCAASGRTFGQNAMGWYRQAPGKERELVASIRSGGITDYADSVKGRFTISRDNAKNTVYLQMNSLKPDDTAVYYCNAEGVWWSTRYDSWGQGTQVTVSS,low polyreactivity
9,QVQLVESGGGLVQAGGSLRLSCAASGRTFGQYVMGWYRKAPGKERELVAAIRSGGSTYYADSVKGRFTISRDNAKNTVYLQMNSLKPEDTAVYYCAKETYYVTDNFGQVGGEMDYWGQGTQVTVSS,low polyreactivity
10,QVQLVESGGGLVQAGGSLRLSCAASGRTFGRNAMGWYRQAPGERELVAVISRGGSTYYADSVKGRFTISRDNAKNTVYLQMNSLKPEDTAVYYCNADTVYTRTAPYDYWGQGTQVTVSS,low polyreactivity
11,QVQLVESGGGLVQAGGSLRLSCAASGRTFGRNAMGWYRQAPGKERELVAAITWSGGSTYYADSVKGRFTISRDNAKNTVYLQMNSLKPEDTAVYYCAADRSRWGQGTQVTVSS,high polyreactivity
12,QVQLVESGGGLVQAGGSLRLSCAASGRTFGRNAMGWYRQAPGKERELVADISLRGGRTYYADSVKGRFTISRDNAKNTVYLQMNSLKPEDTAVYYCAAVQPVGLYPRTKYYYWGQGTQVTVSS,high polyreactivity
13,QVQLVESGGGLVQAGGSLRLSCAASGRTFGRNTMGWYRQAPGKERELVAGISRSAGRTYYADSVKGRFTISRDNAKNTVYLQMNSLKPEDTAVYYCAARYQGNYRTDKYDYWGQGTQVTVSS,high polyreactivity
14,QVQLVESGGGLVQAGGSLRLSCAASGRTFGRYAKGWYRQAPGKERELVATITSGGSTNYADSVKGRFTISRDNAKNTVYLQMNSLKPEDTAVYYCAAEFSPSRWAYSEGALRYNYWGQGTQVTVSS,low polyreactivity
15,QVQLVESGGGLVQAGGSLRLSCAASGRTFGRYALGWDRQAPGKDRELVAAISYSTDSTYYADSVKGRFTISRDNAKNTVYLQMNSLKPEDTAVYYCATDSVNVGSYVGDKHDYWGQGTQVTLSS,low polyreactivity
16,QVQLVESGGGLVQAGGSLRLSCAASGRTFGRYAMGWYRQAPGKERELVATITSGGSTNYADSVKGRFTISRDNAKNTVYLQMNSLKPEDTAVYYCAADVKRDRVWGGDYWGQGTQVTVSS,low polyreactivity
17,QVQLVESGGGLVQAGGSLRLSCAASGRTFGRYAMGWYRQAPGKERELVATITSGGSTNYADSVKGRFTISRDNAKNTVYLQMNSLKPEDTAVYYCAAEFSPSRWAYSEGALRYHYWGQGTQVTVSS,low polyreactivity
18,QVQLVESGGGLVQAGGSLRLSCAASGRTFGRYTMGWYRQAPGKERELVAAINWSGGRTYYADSVKGRFTISRDNAKNTVYLQMNSLKPEDTAVYYCNAVFANTSPEYEYWGQGTQVTVSS,high polyreactivity
19,QVQLVESGGGLVQAGGSLRLSCAASGRTFGRYVMGWYRQAPGKERQLVARIRGSTTSTYYADSVKGRFTISRDNAKNTVYLQMNSLKPEDTAVYYCAASYSPFASSYGYDYWGQGTQVTVSS,high polyreactivity
20,QVQLVESGGGLVQAGGSLRLSCAASGRTFGSKALAWYRPAPGKERELVAAITGGGSTYYADSVKGRFTISRDNAKNTVYLQMNSLKPEDTAVYYCAARGTSGWYRYGYWGQGTQVTVSS,high polyreactivity
21,QVQLVESGGGLVQAGGSLRLSCAASGRTFGSYTMGWYRQAPGKERELVAAITSGGRTNYADSVKGRFTLSRDNAKNTVYLQMTSLKPEATAVYYCAAGLRGGRYRYFAYDYWGQGTQVTVSS,high polyreactivity

row,Sequence,polyreactivity (PSR sort gate)
1,QVQLVESGGGLVQAGGSLRLSCAASGRTFGSYVMGWYRQAPGKERELVAAISWSSGITYYADSVKGRFTISRDNAKNTVYLQMNSLKPEDTAVYYCAARIWDSRAYYYWGQGTQVTVSS,high polyreactivity
2,QVQLVESGGGLVQAGGSLRLSCAASGRTFGTNAMGWYRQAPGKERELVAAIRRGGSRTYNADSVKGRFTISRDIAKNTVYLQMNSLKPEDTAVYYCAVDYYPYEVSYVRMDYWGQCTQVTVSS,low polyreactivity
3,QVQLVESGGGLVQAGGSLRLSCAASGRTFGTNAMGWYRQAPGKERELVAAISWRGTSTYYADSVKGRFTISRDNAKNTVYLQMNSLKPEDTAVYYCAADFSYTSYATRYQGDYWGQGTQVTVSS,low polyreactivity
4,QVQLVESGGGLVQAGGSLRLSCAASGRTFGTYAMGWYRQAPGKERELVAAINFSGGNTYYADSVKGLFTITRDNAKNTVYLQMNSLKPEDTAVYYCAKRGHSYSLDLYYIVTYDYWGQGTQVTVSS,low polyreactivity
5,QVQLVESGGGLVQAGGSLRLSCAASGRTFGVKAMGWYRQAPGKERELVAAITSGGTTNYADSVKGRFTISRDNAKNTFYLQMNSLKPEDTAVYYCAARSYYPRYGYWGQGTQVTVSS,high polyreactivity
6,QVQLVESGGGLVQAGGSLRLSCAASGRTFGVNAMGWYRQAPGKERELVAAIDSSGGSTYYADSVKGRFTISRDNAKNTVYLQMNSLKPEDTAVYYCAGPYRPDYDYWGQGTQVTVSS,high polyreactivity
7,QVQLVESGGGLVQAGGSLRLSCAASGRTFGVNAMGWYRQAPGKERELVAAISRSTGSTYYADSVKGRFTISRDNAKNTVYLQMNSLKPEDTAVYYCARDVYYRGYKYGYWGQGTQVTVSS,high polyreactivity
8,QVQLVESGGGLVQAGGSLRLSCAASGRTFGVNAMGWYRQAPGKERELVARNRVSGGRTYYADSVKGRFTISRDNAKNTVYLQMNSLKPEDTAVYYFNAGYTYNRVIWPYYYWGQGTQVTVSS,high polyreactivity
9,QVQLVESGGGLVQAGGSLRLSCAASGRTFGVYAMGWNRQPPGKERELVATITSVDRTTYADSVKGRFTFSRDNAKITVYLQMNSLKPEDTAVYYCAAVGRWPRYYYWGQGTQVTVSS,high polyreactivity
10,QVQLVESGGGLVQAGGSLRLSCAASGRTFGVYAMGWYRQAPGKERELVAAITGRGGSTYYADSVKGRFTISRDNAKNTVYLQMNSLKAEDTALYYCNAELYEYQSWDDYWGQGTQVTVSS,low polyreactivity
11,QVQLVESGGGLVQAGGSLRLSCAASGRTFGVYAMGWYRQAPGKERELVATIRTTGSTNYADSVKGRFTISRDNAKNTVYLQMNSLKTEDTAVYYCGARQRQSKYYPYTTFTYDYWGQGTQVTVSS,high polyreactivity
12,QVQLVESGGGLVQAGGSLRLSCAASGRTFGVYAMGWYRQAPGKESELVAAISRLAGNTYYADSVKGRFTISRDNAKNTVYLQMNSLKPEDTAVYYCAADFSRQYGYWGQGTQVTVSS,high polyreactivity
13,QVQLVESGGGLVQAGGSLRLSCAASGRTFGVYVKGWYRQAPGKERELVAAIDDSGGSTYYADSVKGRFTISRDNAKNTVYLQMNSLKPEDTAVYYCAKTKTQYLTSEIRFDYWGQGTQVTVSS,low polyreactivity
14,QVQLVESGGGLVQAGGSLRLSCAASGRTFGWYAMGWYRQAPGKERELVAAIRSSGGRTHYADSVKGRFTISRDNAKNTVYLQMNSLKPEDTAVYYCAARYSAAYYWGQGTQVTVSS,high polyreactivity
15,QVQLVESGGGLVQAGGSLRLSCAASGRTFGWYAMGWYRQAPGKERELVAAISLSGGSTYYADSVKGRFTISRDNAKNTVYLQMNSLKPEDTAVYYCNALILPTKMGYWGQGTQVTVSS,low polyreactivity
16,QVQLVESGGGLVQAGGSLRLSCAASGRTFGWYAMGWYRQAPGKERELVATITRGGSTYYADSVKGRFTISRDNAKNTVYLQMNSLKPEDTAVYYCNARRYLWLRRYDYWGQGTQVTVSS,high polyreactivity
17,QVQLVESGGGLVQAGGSLRLSCAASGRTFGYNALGWYRQAPGKERELVAAITRGGITHYADSVKGRFTISRDNAKNTVYIQKNSLKPEDTAGYYCAKRGPYYTDDEYYWGQGTQVTVSS,low polyreactivity
18,QVQLVESGGGLVQAGGSLRLSCAASGRTFGYNAMGWYIQAPGKERELVAAINWSGASTYYADYVKGRFTISRDNAKNTVYLQMNSLKPEDTAVYYCAADYSYIYGFDYWGQGTQVTVSS,low polyreactivity
19,QVQLVESGGGLVQAGGSLRLSCAASGRTFGYNAMGWYRQAAGKERELVAAISSSGGSTYYADSVKGRFTISRDNAKNTVYLQMNSLKPEDTAVYYCATQGYSWAHGSDYWGQGTQVTVSS,low polyreactivity
20,QVQLVESGGGLVQAGGSLRLSCAASGRTFGYNAMGWYRQAPGKERELVAAINWSGASTYYADSVKGRFTISRDNAKNTVYLQMNSLKPEDTAVYYCAADYSYIYGFDYWGQGTQVTLSS,low polyreactivity
